According to the DeepSol protein solubility set:

assay: soluble on expression in E. coli; label from the status in PepcDB or PDB records

Row | Sequence | soluble on expression in E. coli
1 | MSLCRFVAYLGRPTLLENVLVRPKNSIIMQSLHARETKYRTNGDGFGLGWYSPEVSSDPALFTSVYPAWNDRNLLHLTAKIQSPCFFAHVRSASAGGVTNYNCHPFIYGDWMLMHNGEINDFIDVKRHIRHLLDDDIYHWVKGQTDSEHLFGLFLQLAKGRDITQLSVAADVLQETINKILEVIGQFGHSGPSYFNICLTNGKKIIATRYCSHEKKKPLTLHYLIGYVLSTQGLWIKEEGNPAYVVVSSERLNDLDEGWEDVPPQHMILIDENKNIQLRPLQTLGEGHHHHHH | soluble
2 | APVNWGPGETNDSTTVEPVLDGPYQPTTFNPPVDYWMLLAPTAAGVVVEGTNNTDRWLATILVEPNVTSETRSYTLFGTQEQITIANASQTQWKFIDVVKTTQNGSYSQYGPLQSTPKLYAVMKHNGKIYTYNGETPNVTTKYYSTTNYDSVNMTAFCDFYIIPREEESTCTEYINNGLPPIQNTR | soluble
3 | TLPKPFIWAEPHFMVPKEKQVTICCQGNYGAVEYQLHFEGSLFAVDRPKPPERINKVKFYIPDMNSRMAGQYSCIYRVGELWSEPSNLLDLVVTEMYDTPTLSVHPGPEVISGEKVTFYCRLDTATSMFLLLKEGRSSHVQRGYGKVQAEFPLGPVTTAHRGTYRCFGSYNNHAWSFPSEPVKLLVTG | soluble
4 | MTDTDTQADRFEQMMWQAVDKLFEQHDGKLESMDGREQELVLIWRTEADIGNGSILQFVCNWGFPAAEKTCSVLKKIGAVHSAMLIHRAADALDKEIRRLQSEGKNLKEMWDITSRQQNRLTAEQSG | not soluble
5 | MGSDKIHHHHHHMADRMQWANALSTRPSLEAAVTDVVQRAVSTLTAPADLGLVFISSAFASEYSRVLPLLAEQLSVPVMIGCSGGGVIGTAASGQTQELEAEAALSLTLAHLPGVNLQVFHVLGEELPDLDSPPDTWINLIGVPPSPTPHFILLSSAFSSGINDLLQGLDFAYPGSVILGGQASVGGMGGRLALFCNGSLHREGTVGLALSGNIVLEPIVAQGCRPIGEPLQVTKAERNIILELDEKVPLVVLRDLIASLSEKERALAQHSLFVGVAMDEFKLSLQQGDFLIRSILGVDPSGGAIAIGDLVRPGQRLQFHLRDSQASAEELEFLLERYQTKPEFDNSAVGALMFSCVGRGEGLYGKPNFDSELFKRYIQDVPVGGFFCGGEIGPVGGRTFLHGYTSVFGICRELSVED | not soluble
6 | MSLILPPIIAASLPPPPGPHAVGYTFLVHPPLSPFSHSSPTLKSTGKPAFQIEEIGYCLFYPGLPEGKRGKEWVSWVPDPFWGVIRGYERFLGGKGGVSWLVKPLGYIAGRLQMPLHPRAPLKPTDKPYPLLIFSHGLAGTRHTYSQYCAALASEGYVVLAVEHRDGSGPAVVLPPEGESKESRVLYYTGVNDISWAEGEEHPVTHARTLQLDIRTREVYEAYHSFKRLLSHEGDLSIKIEGLEGGHSFGGGTILHLLQSPPPSTLLPSLPAKQAISLDPWLEPLPAPSDILQTPLPSSLPPTLVINSAGFTEWPEHWEKLVEIMKGKGILITMIGIGHQAFSDFPLLSPRGYSHAHSMILKVHELSTAFLNKKLLSGAALAGKTPDKGDYEKDEDGVKIKGKAAMKDGDVLLHFADREEGHHHHHH | soluble
7 | MCGRYALFSTPETLRETFGLTTAPVEPTYNAAPSQSLPVILDTEPTETVRARWGLVPSWSDGPQSAPDPINARAETLTETRHFQAAYEHRRCLVPVDGFYEWRDEDGATVPYFVSRTDGAPFLLAGLWETWTPEQTQTGLGEFTGDDGPSRDPETVRSFTVVTTQPNAFLADYHHRMAVVLTPAQGQRWLTDDDPTDLFTPGAFDLQAWRVSTAVNDPTVDRPALVEPALEHHHHHH | not soluble
8 | MTIKIALLGFGTVAKGIPYLLKENQHKLLSLEGEDIVIDKVLVRDNESRQRFINQGFTYNFVTEINTILQDSQIDIVVELMGGIEPAKTYLSQALGFGKHIVTANKDLIALHGKELMDLADARGLALFYEGAVAGGIPILRTLSHSFASDKMTRLLGILNGTSNFMLTKMFEEGWSYEQALKKAQELGYAESDPTNDVEGIDTAYKATILSQFGFGMPIDFDDVNYKGISSIRSEDVEVAQEMGFAIKLVADLRETPTGISVDVSPTLISQKHPLAAVNHVMNAVFIESIGIGQSLFYGPGAGQNPTATSVLADIIDISRSIRSQIKIKPMNTYHCPCRLSMQSDIFNEYYLAISLRNAEDSDTLGRYFEQENIGLKNVIEKALGDKQQEIYVLTDEVSQEKITQFIEEFPESGVIQLINVFKVIGGLEHHHHHH | soluble
9 | MQTLERFFLFVTGDQPERFEKANSSCADSVILDLENAVSSEKKIIARENALNFMSNDEKVLIAVRAKIVITSRLAGSYPSVDGITTEFMKNELTIQNAIHSCKMGFSGKVCIHPPQISHVNRAFSYLKQEIEWVPQIMRLAQYPHGAFSHEGQMVDKPLLEKAKRILAHSILEHHHHHH | not soluble
10 | MTESDVDSGSKKYLSNHKGIFIHVTLEELKRYHQLTPEQKRLIRAIVKTLIHNPQLLDESSYLYRLLASKAISQFVCPLCLMPFSSSVSLKQHIRYTEHTKVCPVCKKEFTSTDSALDHVCKKHNICVS | soluble
11 | MQVIPLKPLDNKTLEEIGLDWHTNDDMSSYIADEMVVVSQKEADAYYDACNELYDMFVETAEEAIQNDRFFELDIPNALIPMIKQSFEEEVHWHIYGRFDLAGGLDGKPIKLLEFNADTPTMLYETAVIQWALLKANGYDENKQFNNLYEALGENFKRMVTLGEDTSRFEEMYEGWKILFSSVRGNIEEERTMRFLQDAAQSVGFETDFSYIDEVEFNIEEGVFKNGLNYEFLFKLIPWENIAIDEPELALLMQGMMENKNTIFLNPAYTILFQSKRFLKLLWDRYPNHPLLLETSYEPLANKKQIKKVAFGREGANSEIFEASMQSLLKTDGVYSNHKPVYQEFYELNSHNGLYYQPNVFFAYESCALGFRKGGLILDNFSKFVSHRLQ | not soluble
12 | MSLPTEMHHNLGAEKRSAVATTIDSFKERSQKVRALSDPNVRFVPFFGSSEWLRFDGAHPAVLAEKYNRSYRPYLLGQGGAASLNQYFGMQQMLPQLENKQVVYVISPQWFSKNGYDPAAFQQYFNGDQLTSFLKHQSGDQASQYAATRLLQQFPNVAMKDLVQKLASKEELSTADNEMIELLARFNERQASFFGQFSVRGYVNYDKHVAKYLKILPDQFSYQAIEDVVKADAEKNTSNNEMGMENYFYNEQIKKDLKKLKDSQKSFTYLKSPEYNDLQLVLTQFSKSKVNPIFIIPPVNKKWMDYAGLREDMYQQTVQKIRYQLESQGFTNIADFSKDGGEPFFMKDTIHLGWLGWLAFDKAVDPFLSNPTPAPTYHLNERFFSKDWATYDGDVKEFQEGHHHHHH | soluble
13 | MRGSHHHHHHTDPINKDIYQALQQLIPNEKIKVDEPLKRYTYTKTGGNADFYITPTKNEEVQAVVKYAYQNEIPVTYLGNGSNIIIREGGIRGIVISLLSLDHIEVSDDAIIAGSGAAIIDVSRVARDYALTGLEFACGIPGSIGGAVYMNAGAYGGEVKDCIDYALCVNEQGSLIKLTTKELELDYRNSIIQKEHLVVLEAAFTLAPGKMTEIQAKMDDLTERRESKQPLEYPSCGSVFQRPPGHFAGKLIQDSNLQGHRIGGVEVSTKHAGFMVNVDNGTATDYENLIHYVQKTVKEKFGIELNREVRIIGEHPKESLQPSLIS | soluble
14 | MTSYEEETDYRNVPRELLDNNIPMGRGMIKWAPFATLPEQFETIQQYIIDQNKITRPVLSDDQLAELNIRLHEALQYAQPVEVKFYNNGFVDSVRLTIYRIDAINYEIDGYVYNQQQRQKISIFDILDIVLLP | not soluble
15 | STSPEIASLSWGQMKVKGSNTTYKDCKVWPGGSRTWDWRETGTEHSPGVQPADVKEVVEKGVQTLVIGRGMSEALKVPSSTVEYLKKHGIDVRVLQTEQAVKEYNALVAQGVRVGGVFHSTC | soluble
16 | MSLELTVFSIGDWGEKTECLVNVTTKMGSLESAMNPKFIISVGDNFYQRGVKSVEDAAWTEILEEPFGKLSKHLKVHSCLGDHDWRGSTTAQIDRTNYANNTRWYLPGYWWYEKVTFTSEVSLPSLFEKSGLGEISANNSFHFNSSKTENSTSCEIDCLDEIVDNLNTMVNRNNSWNEDLSYKTSISEYFSEKQVNSTAVFIYIDSWTLTQDPFKKTSISYKYSQLEFIEQTLKAAVFENVDWIILVTHYSIYSSGLHGPHTRLASILMPLIKKYRVDFIISGHDHHSEILVPEDFNSYFQIVGASSKPRTSFGATDENSIFKSNTCSFASFTFSKDIAVSRIFSINSSLFSYFKRSNKFEREGHHHHHH | not soluble
17 | MSLVTVDQKPNLIRHLHDLSGVWQTDITYIQLTNHRWVYLATVLDPEKRKVLGYKIGDTMTAELATSALQMALDKHRKPLIIHSDMGSQYTSAEFNIKCQNYGLKHSYSLKGHPYDNGRMEAFHSILKREEVYLKAYQTLTEVQAAIGWYINFYNRNRISNVAEGHHHHHH | not soluble
18 | MGSDKIHHHHHHMEKLQESMYQLIVETSTNLPNDVRRAIAEAKAKENAGTRAALSLSTITENIKMADENISPICQDTGMPTFEIKVPVGVNQIEMKKAIYAAIEQATKDGKLRPNSVDSLTGKNSGNNLGEGTPVIHFEQWEEDYIDARLILKGGGCENKNIQYSLPAELEGLGRAGRDLDGIRKCIMHSVYQAQGQGCSAGFIGVGIGGDRTTSYSLAKEQLFRKVDDVNPNDDLRKLEEYVLENANKLGIGTMGFGGEATLLGCKVGAMNRLPASFFVSVAYNCWAFRRLGVELDAETGEIKKWLYKDGERVDLNEVASQVAATAETTEVREVVLEAPVTEEQIRELKVGDVVIINGMLHTGRDAIHHHLMDHDAPIDLDGQIIYHCGPVMLQDDAGEWHVKAAGPTTSIREEPYQGDIMKKFGIRAVIGKGGMGPKTLKALQEHGGVYLNAIGGAAQYYADCIKKVKGVDLMEFGIPEAMWHLEVEGFAAIVTMDSHGNSLHEDVDKSSLEKLEQFAEKVF | not soluble
19 | MRPCRTGREQMTDTTMQLLSQGTDHVKVPDFDILAEGKTLSGVAERLMSLSLTDNRGFEADQLTITLDDADGQLQLPPRGARLTVLIGWKGEPLTEKGTCRFNLSMQHPFQLSLSVF | not soluble
20 | MATTCQKRRYGTFRTGISKPGLSTRRFQHRDFSHGDFGTGTFRTAVSPPLTFSSPPTSTVATPYFPMRFINVKSHVSRPPPLHGDIPIGHEGTRVSRHVDDRCGLVVVSRHGRAGGCLSRLEHHHHHH | not soluble
21 | MSLGKTLFDKLWNRHVIYGKEGEPQLLYVDLHLIHEVTSPQAFEGLRMENRPLRRPDKTFATMDHNVPTEDIFNIQDLVAKKQIEALQTNCEEFGVTLADMGSDRQGIVHMVGPETGLTQPGKVIVCGDSHTATHGAFGAIGFGIGSSEVEHVFATQTIWQQKPKSMGIEINGNLPKGVYAKDIILHLIATYGVAFGTGYAVEYYGETIRNMSMEERMTICNMAIEGGAKMGMMAPDETTFEYVRGREYAPADMDKAISDWKTLQTDPDAEYDLHIKMDASILEPYVTWGTNPEMGVPFSKAFPEIKDMNYERAYEYMGLKPGQTAEEIELGYVFIGSCTNARLSDLEEAARIVKGNKVKNNIRALVVPGSRQVRNAAESIGLDKIFIEAGFEWREPGCSMCLGMNPDQVPDGVHCASTSNRNFEGRQGKGARTHLVSPAMAAAAAINGHFIDIRKEAVISGGNEGHHHHHH | not soluble
